Experimental data reported in the supplement of paper PMC10724198.

Legend:
Saccharomyces cerevisiae [1] = assay: protein stability index of tFT-peptide fusion in wild type (PSI (0-1 scale)); higher = more stable (slower turnover); conditions: genetic background: wild type
Saccharomyces cerevisiae [2] = assay: protein stability index of tFT-peptide fusion in deletion strain of DOA10 (PSI (0-1 scale)); higher = more stable (slower turnover)
Protocol: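 MPS profiling in S. cerevisiae of two library types built from selected 12-aa C-degron peptides (IN1, IN2, LN1, LN3, VN2, R1-R5, W1-W3, Atg1 and Rpa12 C-termini): saturation mutagenesis libraries and C-terminal +1 capping libraries (13 aa). Each peptide is fused to the C-terminus of a sfGFP-mCherry timer, after a GGGS linker. Cells are FACS-sorted into 8 mCherry/sfGFP bins and sequenced. PSI runs from 0 (unstable) to 1 (stable), measured once in wild type and in the das1Δ or doa10Δ background.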
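For protein stability index of tFT-peptide fusion in deletion strain of DOA10 in this document: PSI per variant is the weighted mean of its sequencing read distribution over the sorted stability bins, counting only variants with over 10 reads summed across bins.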
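For protein stability index of tFT-peptide fusion in wild type in this document: PSI derived as read-weighted mean over the 8 sorting bins, only variants exceeding 10 total reads kept, mCherry placed adjacent to the peptide and sfGFP distal.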

Sequence	protein stability index (Saccharomyces cerevisiae [1])	protein stability index (Saccharomyces cerevisiae [2])
RVTRLTAIYFRI	0.172	0.351
RVTRLDAIYFRIA	0.0756	0.136
RVTRLDAKYFRI	0.673	0.709
GLYMCSDGCWFR	0.65	0.718
RSLRVLLPPYFR	0.658	0.689
RVHRLDAIYFRI	0.438	0.659
AITLPMCPLLLRQ	0.34	0.634
RVNRLDAIYFRI	0.48	0.659
RVTRLHAIYFRI	0.172	0.372
RSLRVLLPLYNR	0.623	0.666
AITLPMCPALLR	0.493	0.672
GLYMCSVGCWHR	0.668	0.722
RVTRLIAIYFRI	0.168	0.348
GLYMCSVGCWFH	0.401	0.497
GLYMCSVGCWFC	0.261	0.287
RNTRLDAIYFRI	0.529	0.664
RSFRVLLPLYFR	0.162	0.612
GLQMCSVGCWFR	0.195	0.656
GLYGCSVGCWFR	0.504	0.683
CLVSLPILLFNR	0.394	0.588
RVTRLDAILFRI	0.453	0.705
RITLPMCPLLLR	0.296	0.651
RSLRVNLPLYFR	0.18	0.672
GLYMCSVGCDFR	0.641	0.663

Sequence	protein stability index (Saccharomyces cerevisiae [1])	protein stability index (Saccharomyces cerevisiae [2])
GLYMCSVGCWFRD	0.431	0.649
AITLRMCPLLLR	0.389	0.643
GLYMCSVGCWFRR	0.347	0.646
CLVSLCILLFFR	0.23	0.334
RSLRVPLPLYFR	0.113	0.687
RMTRLDAIYFRI	0.429	0.655
CLVSLPILCFFR	0.0771	0.558
CLVSLPILLFFC	0.0908	0.249
RVDRLDAIYFRI	0.559	0.639
RSLRVLLPLYFRL	0.194	0.496
CLVSLPILLFVR	0.0446	0.249
GLYMCMVGCWFR	0.25	0.462
RSLRVLLPLYFA	0.286	0.413
RSLRVLLPLYFH	0.365	0.583
AIRLPMCPLLLR	0.27	0.649
CLVSLNILLFFR	0.17	0.323
RVTRLDAIYFRII	0.0611	0.127
GLYMCSVGCWFW	0.333	0.453
RSLRVLIPLYFR	0.23	0.639
GLYMCSSGCWFR	0.435	0.679
RVTCLDAIYFRI	0.477	0.655
RVTRLYAIYFRI	0.134	0.294
ILYMCSVGCWFR	0.289	0.486
RSLRVLLPLYFRD	0.346	0.647

Sequence	protein stability index (Saccharomyces cerevisiae [1])	protein stability index (Saccharomyces cerevisiae [2])
AITLPGCPLLLR	0.327	0.683
GLYMCSVGRWFR	0.643	0.668
CLVSLPILLFFW	0.252	0.435
GLYMCSVGCPFR	0.642	0.677
RSLRVLLPQYFR	0.642	0.689
GLYMCSGGCWFR	0.47	0.687
AITLPMCPLLPR	0.667	0.673
AITLPMCPLLLRM	0.172	0.573
CLVVLPILLFFR	0.0796	0.451
CGVSLPILLFFR	0.0581	0.622
GLYMASVGCWFR	0.322	0.684
CLVSLPIELFFR	0.596	0.656
RVTRCDAIYFRI	0.467	0.677
CLVSLPILLIFR	0.0669	0.537
RSLRVLLPLFFR	0.38	0.681
AITLPMCPLLLC	0.134	0.184
RVTRLPAIYFRI	0.217	0.636
RVTRLDACYFRI	0.532	0.707
RATRLDAIYFRI	0.493	0.681
GLYHCSVGCWFR	0.409	0.674
RSLRVLLPLYFY	0.263	0.435
CLVSLPWLLFFR	0.144	0.65
CLVSQPILLFFR	0.227	0.628
AITLPMHPLLLR	0.25	0.643
